# Assay results: publication doi:10.1101/2022.09.11.507496
# Molecular target: VSV:H2-K^b (mouse | not stated) (UniProt P03521)
# Test: micropipette adhesion frequency
# Sequence of UniProt P03521 (P03521 whole entry, looked up): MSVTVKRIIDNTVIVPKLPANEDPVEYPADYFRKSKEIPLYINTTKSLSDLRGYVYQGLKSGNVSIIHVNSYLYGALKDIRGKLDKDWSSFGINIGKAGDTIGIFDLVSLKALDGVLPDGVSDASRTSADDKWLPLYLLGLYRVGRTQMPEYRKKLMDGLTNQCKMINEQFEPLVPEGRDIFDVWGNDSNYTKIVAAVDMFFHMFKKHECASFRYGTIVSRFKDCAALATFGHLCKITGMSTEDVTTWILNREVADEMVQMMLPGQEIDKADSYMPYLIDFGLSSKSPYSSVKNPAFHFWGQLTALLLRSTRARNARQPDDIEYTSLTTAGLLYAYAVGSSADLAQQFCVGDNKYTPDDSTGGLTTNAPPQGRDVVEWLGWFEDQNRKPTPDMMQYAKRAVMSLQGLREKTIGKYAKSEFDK
substance,measurement,value
CD8 on CD8+ T cells of OT-I mice (from UniProt P01731;P10300) (receptor),fold smaller 2D affinity than TCR–pMHC,500 fold
